The record followed here is paper PMC3755337.

The term stoichiometry N denotes the number of molecules, sites or subunits per partner or assembly.

Common to all, as to assay: SEC; purified mutant TNFα alone on a size exclusion column; single peak; column and buffer not given
Background: SEC sorts molecules by how far they enter the pores of the column.

Experiment [1] has as its target mTNFα mutant 1, [Q6R, N7T, S8P]mTNF-α(1–156) (mouse).
Experiment [2] deals with mTNFα mutant 5, [P101Q, K102R, D103E, L110A]mTNF-α(1–156) (mouse).
Experiment [3] concerns the target mTNFα mutant 3, [S30N, Q31R]mTNF-α(1–156) (mouse).
Experiment [4] has as its target mTNFα mutant 15, [H20P, V22A, E24G, E27Q, S30N, Q31R, M41V, V58I, V79I, V96I, V135I, L137R, K139D, V153I]mTNF-α(1–156) (mouse).
Experiment [5] addresses mTNFα mutant 14, [H20P, V22A, E24G, E27Q, M41V, V58I, V79I, V96I, V135I, V153I]mTNF-α(1–156) (mouse).
The target in experiment [6] is mTNFα mutant 4, [D71S, Y72H, ins 71_T_72]mTNF-α(1–156) (mouse).
The target in experiment [7] is mTNFα mutant 18, [L1V, Q6R, N7T, S8P, H20P, V22A, E24G, E27Q, S30N, Q31R, M41V, V58I, V79I, V96I, V135I, V153I]mTNF-α(1–156) (mouse).
Experiment [8] has as its target mTNFα mutant 16, [L1V, Q6R, N7T, S8P, H20P, V22A, E24G, E27Q, S30N, Q31R, M41V, V58I, V79I, V96I, V135I, L137R, K139D, V153I]mTNF-α(1–156) (mouse).
Experiment [9] deals with mTNFα mutant 7, [E88T]mTNF-α(1–156) (mouse).
The target of experiment [10] is mTNFα mutant 12, [D42E, K44R, F82I, I84V, E88T, Q130R]mTNF-α(1–156) (mouse).
Experiment [11] has as its target mTNFα mutant 8, [L137R, K139D]mTNF-α(1–156) (mouse).
The target of experiment [12] is mTNFα mutant 17, [L1V, Q6R, N7T, S8P, H20P, V22A, E24G, E27Q, S30N, Q31R, M41V, D42E, K44R, A52S, D53E, V58I, V79I, F82I, I84V, E88T, V96I, Q130R, V135I, L137R, K139D, V153I]mTNF-α(1–156) (mouse).
Experiment [13] has as its target mTNFα mutant 19, [L1V, Q6R, N7T, S8P, H20P, V22A, E24G, E27Q, S30N, Q31R, M41V, D42E, K44R, V58I, V79I, V96I, P101Q, K102R, D103E, L110A, V135I, L137R, K139D, V153I]mTNF-α(1–156) (mouse).
Experiment [14] concerns the target mTNFα mutant 20, [L1V, Q6R, N7T, S8P, H20P, V22A, E24G, E27Q, S30N, Q31R, M41V, D42E, K44R, V58I, D71S, Y72H, ins 71_T_72, V79I, V96I, P101Q, K102R, D103E, L110A, V135I, L137R, K139D, V153I]mTNF-α(1–156) (mouse).
The target in experiment [15] is mTNFα mutant 2, [Q6R, N7T, S8P, A52S, D53E]mTNF-α(1–156) (mouse).
Experiment [16] deals with mTNFα mutant 9, [H20P, V22A, E24G, E27Q]mTNF-α(1–156) (mouse).
The target in experiment [17] is mTNFα mutant 13, [M41V, V58I, V79I, V96I, V135I, V153I]mTNF-α(1–156) (mouse).
The target in experiment [18] is mTNFα mutant 6, D71S, Y72H, ins 71_T_72, P101Q, K102R,D103E,L110A]mTNF-α(1–156) (mouse).
Experiment [19] addresses mTNFα mutant 11, [Q130R]mTNF-α(1–156) (mouse).
For experiment [20], the target named is mTNFα mutant 10, [H20P, V22A, E24G, E27Q, S30N, Q31R, L137R, K139D]mTNF-α(1–156) (mouse).

With “mTNFα mutant 1, [Q6R, N7T, S8P]mTNF-α(1–156) (natural protein)”, in [1], the stoichiometry N turned out to be 3. In turn, “mTNFα mutant 5, [P101Q, K102R, D103E, L110A]mTNF-α(1–156) (natural protein)” came in with a stoichiometry N in experiment [2] of 3. With “mTNFα mutant 3, [S30N, Q31R]mTNF-α(1–156) (natural protein)”, in experiment [3], the stoichiometry N came out at 3. “mTNFα mutant 15, [H20P, V22A, E24G, E27Q, S30N, Q31R, M41V, V58I, V79I, V96I, V135I, L137R, K139D, V153I]mTNF-α(1–156) (natural protein)” showed a stoichiometry N in [4] of 3. Regarding “mTNFα mutant 14, [H20P, V22A, E24G, E27Q, M41V, V58I, V79I, V96I, V135I, V153I]mTNF-α(1–156) (natural protein)”, in experiment [5], the stoichiometry N was determined as 3. Turning to “mTNFα mutant 4, [D71S, Y72H, ins 71_T_72]mTNF-α(1–156) (natural protein)”, the stoichiometry N in experiment [6] worked out at 3.

“mTNFα mutant 18, [L1V, Q6R, N7T, S8P, H20P, V22A, E24G, E27Q, S30N, Q31R, M41V, V58I, V79I, V96I, V135I, V153I]mTNF-α(1–156) (natural protein)” registered a stoichiometry N in [7] of 3.

“mTNFα mutant 16, [L1V, Q6R, N7T, S8P, H20P, V22A, E24G, E27Q, S30N, Q31R, M41V, V58I, V79I, V96I, V135I, L137R, K139D, V153I]mTNF-α(1–156) (natural protein)” registered a stoichiometry N in experiment [8] of 3.

Regarding “mTNFα mutant 7, [E88T]mTNF-α(1–156) (natural protein)”, the stoichiometry N in experiment [9] worked out at 3. As for “mTNFα mutant 12, [D42E, K44R, F82I, I84V, E88T, Q130R]mTNF-α(1–156) (natural protein)”, the stoichiometry N in experiment [10] was 3. In experiment [11], “mTNFα mutant 8, [L137R, K139D]mTNF-α(1–156) (natural protein)” yielded a stoichiometry N of 3. As to “mTNFα mutant 17, [L1V, Q6R, N7T, S8P, H20P, V22A, E24G, E27Q, S30N, Q31R, M41V, D42E, K44R, A52S, D53E, V58I, V79I, F82I, I84V, E88T, V96I, Q130R, V135I, L137R, K139D, V153I]mTNF-α(1–156) (natural protein)”, in experiment [12], the stoichiometry N was 3. In [13], “mTNFα mutant 19, [L1V, Q6R, N7T, S8P, H20P, V22A, E24G, E27Q, S30N, Q31R, M41V, D42E, K44R, V58I, V79I, V96I, P101Q, K102R, D103E, L110A, V135I, L137R, K139D, V153I]mTNF-α(1–156) (natural protein)” gave a stoichiometry N of 3. In [14], “mTNFα mutant 20, [L1V, Q6R, N7T, S8P, H20P, V22A, E24G, E27Q, S30N, Q31R, M41V, D42E, K44R, V58I, D71S, Y72H, ins 71_T_72, V79I, V96I, P101Q, K102R, D103E, L110A, V135I, L137R, K139D, V153I]mTNF-α(1–156) (natural protein)” returned a stoichiometry N of 3. Turning to “mTNFα mutant 2, [Q6R, N7T, S8P, A52S, D53E]mTNF-α(1–156) (natural protein)”, the stoichiometry N in experiment [15] is 3. In turn, “mTNFα mutant 9, [H20P, V22A, E24G, E27Q]mTNF-α(1–156) (natural protein)” returned a stoichiometry N in [16] of 3.

As to “mTNFα mutant 13, [M41V, V58I, V79I, V96I, V135I, V153I]mTNF-α(1–156) (natural protein)”, the stoichiometry N in experiment [17] stood at 3. As to “mTNFα mutant 6, D71S, Y72H, ins 71_T_72, P101Q, K102R,D103E,L110A]mTNF-α(1–156) (natural protein)”, the stoichiometry N in experiment [18] is 3.

In turn, “mTNFα mutant 11, [Q130R]mTNF-α(1–156) (natural protein)” returned a stoichiometry N in experiment [19] of 3. On to “mTNFα mutant 10, [H20P, V22A, E24G, E27Q, S30N, Q31R, L137R, K139D]mTNF-α(1–156) (natural protein)”, for which the stoichiometry N in [20] was 3.
